B1: CDKN1A (parent)
chain: RRQTSMTDFYHSKRRLIFSKRKP

Variants of: B1
Test: protein stability index of a GFP-peptide fusion (GPS, HEK-293T) (PSI 1-6); higher = more stable
Conditions: c terminus: native
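Also: lentivirally expressed fusions sorted by FACS into six bins by GFP to DsRed ratio, PSI derived from sequencing read proportions per bin multiplied by bin number.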

Protein stability index: each site, then its substitutions
F9: D 2.72 | G 2.02 | I 3.36 | K 2.4 | C 2.71 | Y 3.43 | R 2.54 | T 2.25 | L 2.24 | V 2.43 | H 4.22
D8: T 3.06 | L 2.32 | S 2.95 | Y 1.55 | K 3.12 | F 3.24 | E 3.76 | G 2.29 | R 1.14 | M 2.65 | P 2.14
M6: A 2.57 | F 2.03 | Y 1.92 | D 1.96 | I 2.14 | P 1.34 | H 2.36 | L 2.93 | W 2.56 | K 3.44 | N 3.37
R14: D 2.81 | W 3.61 | T 1.99 | K 4.64 | L 3.27 | E 3.86 | Q 4.01 | C 2.69 | H 4.02 | A 2.14 | M 3.31 | S 1.83 | N 2.75 | I 2.18
I17: A 2.48 | E 3.68 | K 1.86 | G 1.79 | S 2.99 | M 3.71 | L 3.47 | Y 2.76 | P 3.06 | T 2.63
S5: R 2.53 | V 2.27 | T 2.38 | Y 2.19 | Q 2.55
S12: W 2.39 | C 2.98 | M 2.75 | I 3.96 | F 1.59 | G 2.07 | A 2.99 | Y 2.15 | E 2.92 | V 2.01 | P 2.31 | N 3.42
R15: T 2.34 | P 2.52 | Y 2.23 | D 3.82 | L 2.47 | I 3 | A 2.94 | M 3.54 | Q 2.41 | C 3.8
Y10: V 2.77 | K 1.57 | M 3.11 | Q 2.75 | C 1.4 | T 3.41 | I 2.79 | W 2.66 | E 2.83 | A 3.44 | P 2.22 | R 3.01 | N 1.72
T7: H 2.4 | Q 2.1 | S 2.44 | C 1.94 | K 2.19 | R 1.87 | Y 1.79 | L 1.8 | E 3.61 | W 1.87 | F 2.06 | N 3.04
K13: Q 1.8 | D 2.39 | E 3.4 | C 3.33 | W 2.83 | T 2.31 | P 3.13 | L 2.51 | A 3 | H 1.75 | Y 2.37 | I 2.36 | N 2.55 | V 2.27 | G 1.81 | F 2.44 | S 3.39
F18: S 3.17 | T 2.45 | L 1.65 | P 2.82 | E 3.49 | A 2.87 | W 2.28 | Q 1.79 | V 2.3 | D 3.34 | I 2.23 | R 2.05 | K 2.26 | C 1.69 | Y 2.46
H11: N 1.47 | E 2.37 | Q 2.55 | D 1.65 | P 2.49 | Y 1.66 | I 2.03 | L 3.32 | V 1.43 | S 2.69 | A 2.49 | F 2.93 | K 3.46 | G 2.88
L16: F 3.4 | G 3.3 | H 2.87 | K 2.21 | S 2.86 | Q 2.53 | T 2.17 | Y 1.65 | C 2.32 | M 1.54 | P 3.36
S19: A 2.87
